Experiment [1] addresses T1, FcγRIIB-Fc fusion protein (soluble dimeric FcγRIIB) (human, UniProt P31994 43-217).
T1 construct: extracellular domain; the suffix agl in 2bfcagl is not explained; also called FcRIIB-Fc; FcγRIIB-G2; not shown: hinge-CH2-CH3 domain of human IgG2
T1 sequence (looked up): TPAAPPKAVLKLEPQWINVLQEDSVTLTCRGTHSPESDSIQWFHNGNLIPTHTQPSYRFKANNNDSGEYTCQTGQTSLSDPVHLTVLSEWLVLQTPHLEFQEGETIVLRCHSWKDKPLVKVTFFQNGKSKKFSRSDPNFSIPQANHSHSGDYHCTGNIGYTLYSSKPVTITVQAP
Kind of experiment: ELISA. In general terms: ELISA stands for enzyme-linked immunosorbent assay.

Experiment [2] concerns the target T1, FcγRIIB-Fc fusion protein (soluble …). Nature of the experiment: SPR.
The target is the same in experiment [3]. Nature of the experiment: SPR. The source holds these as a separate data set.
The target of experiment [4] is T2, soluble monomeric FcγRIIIA-linker-AVITAG (158V), biotinylated (human, UniProt P08637 17-203, biotin on the AVITAG lysine (BirA)).
T2 construct: range 1-203; used as monomer in ELISA and BIAcore; also called FcR3A; FcRIIIa; not shown: linker-AVITAG (15 aa AVITAG) at the C-terminus; only the coding oligonucleotide is given
T2 sequence (P08637 17-203 F176V limits assumed, form in doubt): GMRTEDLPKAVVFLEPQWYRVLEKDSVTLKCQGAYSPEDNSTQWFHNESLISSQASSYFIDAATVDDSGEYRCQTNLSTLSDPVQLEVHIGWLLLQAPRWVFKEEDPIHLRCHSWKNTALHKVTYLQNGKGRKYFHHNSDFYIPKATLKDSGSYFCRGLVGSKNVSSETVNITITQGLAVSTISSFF
Nature of the experiment: ELISA.

Experiment [5] has as its target T1, FcγRIIB-Fc fusion protein (soluble …). Kind of experiment: ELISA. This is another data set of the same source.
Experiment [6] deals with T2, soluble monomeric …. Nature of the experiment: SPR.
Experiment [7] concerns the target T2, soluble monomeric …. Kind of experiment: ELISA. The source holds these as a separate data set.
Experiment [8] has as its target T1, FcγRIIB-Fc fusion protein (soluble …). Kind of experiment: ELISA. The source holds these as a separate data set.
For experiment [9], the target named is T2, soluble monomeric …. Kind of experiment: ELISA. This is another data set of the same source.
Experiment [10] concerns the target T2, soluble monomeric …. Kind of experiment: SPR. This is another data set of the same source. On the technique in general: Surface plasmon resonance follows binding to a sensor surface in real time, without labels.

Like-named read-outs stand apart in the source and are kept apart here.

B1: ch4-4-20 T215P, K274N, A287G, K334N, L365V, P396L (antibody)
chain: PEPKSCDKTHTCPPCPAPELLGGPSVFLFPPKPKDTLMISRTPEVTCVVVDVSHEDPEVNFNWYVDGVEVHNGKTKPREEQYNSTYRVVSVLTVLHQDWLNGKEYKCKVSNKALPAPIENTISKAKGQPREPQVYTLPPSRDELTKNQVSVTCLVKGFYPSDIAVEWESNGQPENNYKTTPLVLDSDGSFFLYSKLTVDKSRWQQGNVFSCSVMHEALHNHYTQKSLSLSPGK
In the case of B1, the fold vs wt in experiment [1] amounted to 4 x increase.

B2: ch4-4-20 K317N, F423-deleted (antibody)
chain: EPKSCDKTHTCPPCPAPELLGGPSVFLFPPKPKDTLMISRTPEVTCVVVDVSHEDPEVKFNWYVDGVEVHNAKTKPREEQYNSTYRVVSVLTVLHQDWLNGNEYKCKVSNKALPAPIEKTISKAKGQPREPQVYTLPPSREEMTKNQVSLTCLVKGFYPSDIAVEWESNGQPENNYKTTPPVLDSDGSFFLYSKLTVDKSRWQQGNVSCSVMHEALHNHYTQKSLSLSPGK
In the case of B2, the fold vs wt in experiment [1] came to 7 x increase.

B3: ch4-4-20 K288N, A330S, P396L (antibody)
chain: EPKSCDKTHTCPPCPAPELLGGPSVFLFPPKPKDTLMISRTPEVTCVVVDVSHEDPEVKFNWYVDGVEVHNANTKPREEQYNSTYRVVSVLTVLHQDWLNGKEYKCKVSNKALPSPIEKTISKAKGQPREPQVYTLPPSREEMTKNQVSLTCLVKGFYPSDIAVEWESNGQPENNYKTTPLVLDSDGSFFLYSKLTVDKSRWQQGNVFSCSVMHEALHNHYTQKSLSLSPGK
Broadly, the Kd is the concentration at which binding is half-saturated. As for B3, the Kd in [2] came out at 41.3 nM; in experiment [3] it was 33.4 nM. The “ELISA, OD” value in [4] is 1 OD; in experiment [5], 1.2 OD.

B4: ch4-4-20 Y319F, P352L, P396L (antibody)
chain: EPKSCDKTHTCPPCPAPELLGGPSVFLFPPKPKDTLMISRTPEVTCVVVDVSHEDPEVKFNWYVDGVEVHNAKTKPREEQYNSTYRVVSVLTVLHQDWLNGKEFKCKVSNKALPAPIEKTISKAKGQPREPQVYTLLPSREEMTKNQVSLTCLVKGFYPSDIAVEWESNGQPENNYKTTPLVLDSDGSFFLYSKLTVDKSRWQQGNVFSCSVMHEALHNHYTQKSLSLSPGK
For the molecule B4, the Kd in [3] is 55.7 nM; in [6], 125 nM. In addition, in experiment [7], the fold vs wt worked out at 3.5 X.

B5: ch4-4-20 E293V, Q295E, A327T (antibody)
chain: EPKSCDKTHTCPPCPAPELLGGPSVFLFPPKPKDTLMISRTPEVTCVVVDVSHEDPEVKFNWYVDGVEVHNAKTKPRVEEYNSTYRVVSVLTVLHQDWLNGKEYKCKVSNKTLPAPIEKTISKAKGQPREPQVYTLPPSREEMTKNQVSLTCLVKGFYPSDIAVEWESNGQPENNYKTTPPVLDSDGSFFLYSKLTVDKSRWQQGNVFSCSVMHEALHNHYTQKSLSLSPGK
Take B5: in experiment [3], the Kd was 86 nM.

B6: ch4-4-20 G316D, A378V, D399E (antibody)
chain: ASTKGPSVFPLAPSSKSTSGGTAALGCLVKDYFPEPVTVSWNSGALTSGVHTFPAVLQSSGLYSLSSVVTVPSSSLGTQTYICNVNHKPSNTKVDKKVEPKSCDKTHTCPPCPAPELLGGPSVFLFPPKPKDTLMISRTPEVTCVVVDVSHEDPEVKFNWYVDGVEVHNAKTKPREEQYNSTYRVVSVLTVLHQDWLNDKEYKCKVSNKALPAPIEKTISKAKGQPREPQVYTLPPSRDELTKNQVSLTCLVKGFYPSDIVVEWESNGQPENNYKTTPPVLESDGSFFLYSKLTVDKSRWQQGNVFSCSVMHEALHNHYTQKSLSLSPGK
As usually defined, the koff is a measure of how fast the partners let go of each other. For the molecule B6, the Kd turned out to be 46 nM in experiment [3] and 72 nM in [6]. The koff is 0.06 s⁻¹ in [3] and 0.117 s⁻¹ in experiment [6]. Besides, the fold vs wt in experiment [8] was found to be 14 X; in experiment [7], 1.5 X; in experiment [1] it was 14 x increase; in [9], 1.5 x increase.

B7: ch4D5 MGFc0074 (F243L, R292P, V305I) (antibody)
chain: ASTKGPSVFPLAPSSKSTSGGTAALGCLVKDYFPEPVTVSWNSGALTSGVHTFPAVLQSSGLYSLSSVVTVPSSSLGTQTYICNVNHKPSNTKVDKKVEPKSCDKTHTCPPCPAPELLGGPSVFLLPPKPKDTLMISRTPEVTCVVVDVSHEDPEVKFNWYVDGVEVHNAKTKPPEEQYNSTYRVVSILTVLHQDWLNGKEYKCKVSNKALPAPIEKTISKAKGQPREPQVYTLPPSRDELTKNQVSLTCLVKGFYPSDIAVEWESNGQPENNYKTTPPVLDSDGSFFLYSKLTVDKSRWQQGNVFSCSVMHEALHNHYTQKSLSLSPGK
As for B7, in [10], the “Koff WT/Koff MUT” value came out at 2.56 ratio.

B8: ch4-4-20 V348M, K334N, F275I, Y202M, K147T (antibody)
chain: ASTKGPSVFPLAPSSKSTSGGTAALGCLVTDYFPEPVTVSWNSGALTSGVHTFPAVLQSSGLYSLSSVVTVPSSSLGTQTYICNMNHKPSNTKVDKKVEPKSCDKTHTCPPCPAPELLGGPSVFLFPPKPKDTLMISRTPEVTCVVVDVSHEDPEVKINWYVDGVEVHNAKTKPREEQYNSTYRVVSVLTVLHQDWLNGKEYKCKVSNKALPAPIENTISKAKGQPREPQMYTLPPSRDELTKNQVSLTCLVKGFYPSDIAVEWESNGQPENNYKTTPPVLDSDGSFFLYSKLTVDKSRWQQGNVFSCSVMHEALHNHYTQKSLSLSPGK
Take B8: the fold vs wt in [9] is 0.5 x increase.

B9: ch4D5 MGFc0088A (F243L, R292P, Y300L, P396L) (antibody)
chain: ASTKGPSVFPLAPSSKSTSGGTAALGCLVKDYFPEPVTVSWNSGALTSGVHTFPAVLQSSGLYSLSSVVTVPSSSLGTQTYICNVNHKPSNTKVDKKVEPKSCDKTHTCPPCPAPELLGGPSVFLLPPKPKDTLMISRTPEVTCVVVDVSHEDPEVKFNWYVDGVEVHNAKTKPPEEQYNSTLRVVSVLTVLHQDWLNGKEYKCKVSNKALPAPIEKTISKAKGQPREPQVYTLPPSRDELTKNQVSLTCLVKGFYPSDIAVEWESNGQPENNYKTTPLVLDSDGSFFLYSKLTVDKSRWQQGNVFSCSVMHEALHNHYTQKSLSLSPGK
B9: the “Koff WT/Koff MUT” value in experiment [10] came to 10.1 ratio.

B10: ch4-4-20 K334E, T359N, T366S (antibody)
chain: ASTKGPSVFPLAPSSKSTSGGTAALGCLVKDYFPEPVTVSWNSGALTSGVHTFPAVLQSSGLYSLSSVVTVPSSSLGTQTYICNVNHKPSNTKVDKKVEPKSCDKTHTCPPCPAPELLGGPSVFLFPPKPKDTLMISRTPEVTCVVVDVSHEDPEVKFNWYVDGVEVHNAKTKPREEQYNSTYRVVSVLTVLHQDWLNGKEYKCKVSNKALPAPIEETISKAKGQPREPQVYTLPPSRDELNKNQVSLSCLVKGFYPSDIAVEWESNGQPENNYKTTPPVLDSDGSFFLYSKLTVDKSRWQQGNVFSCSVMHEALHNHYTQKSLSLSPGK
As to B10, the Kd in [3] worked out at 72 nM; in experiment [6] it was 55.2 nM. In addition, the koff was 0.11 s⁻¹ in [3] and 0.128 s⁻¹ in experiment [6]. Besides, the figures for the fold vs wt in experiment [7] and in experiment [9] were 1.5 X and 1.5 x increase, respectively.

B11: ch4-4-20 F243I, V379L, G420V (antibody)
chain: ASTKGPSVFPLAPSSKSTSGGTAALGCLVKDYFPEPVTVSWNSGALTSGVHTFPAVLQSSGLYSLSSVVTVPSSSLGTQTYICNVNHKPSNTKVDKKVEPKSCDKTHTCPPCPAPELLGGPSVFLIPPKPKDTLMISRTPEVTCVVVDVSHEDPEVKFNWYVDGVEVHNAKTKPREEQYNSTYRVVSVLTVLHQDWLNGKEYKCKVSNKALPAPIEKTISKAKGQPREPQVYTLPPSRDELTKNQVSLTCLVKGFYPSDIALEWESNGQPENNYKTTPPVLDSDGSFFLYSKLTVDKSRWQQVNVFSCSVMHEALHNHYTQKSLSLSPGK
Regarding B11, in [3], the Kd is 93.4 nM and the koff amounted to 0.101 s⁻¹.

For the origin of these results see patent US20070036799A1 (MacroGenics, published 2007).
